Biological target: Mlh1-Pms1 DLDMMR (Saccharomyces cerevisiae (yeast; …, UniProt P38920;P14242 1-347+374-769;1-436+488-873, internal_change;internal_change)
Test: filter binding

B1: 49-mer homoduplex AO3142/AO3144 (dsDNA)
DNA 1: GGGTCAACGTGGGCAAAGATGTCCTAGCAAGTCAGAATTCGGTAGCGTG
DNA 2: CACGCTACCGAATTCTGACTTGCTAGGACATCTTTGCCCACGTTGACCC
- binding result: binds

Source: publication doi:10.1101/475152
